# Results: the supplement of paper PMC7125110
# ± gives the standard error. Variants at the floor of the assay were thinned out.
# B1: glmS ribozyme (parent)
# chain: AUAAAAGCGCCAGAACUACAGAAAUGUAGUUGACGAGGAGGAGGUUUAUCGAAUUUUCGGCGGAUGCCUCCAAA
# How the values were obtained:
# Conditions in all cases: with glucosamine-6-phosphate
# [1] = variants of: B1; assay: self-cleavage kobs at 160 uM GlcN6P; higher = faster cleavage; RNA array
# Procedure, shortened: (§1)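 Barcoded ribozyme variants, transcribed in situ by E. coli RNA polymerase on sequenced MiSeq chips, were followed via a hybridised Cy3 probe at 37 °C. Glucosamine-6-phosphate ranged from 40 μM to 10 mM in HEPES/KCl/Mg(OAc)2 buffer. kobs came from decay fits to per-tile medians, and kcat and KM from weighted Michaelis–Menten fits.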
# [2] = variants of: B1; assay: self-cleavage kobs at 640 uM GlcN6P; higher = faster cleavage; RNA array
# Procedure, shortened: as §1
# [3] = variants of: B1; assay: self-cleavage kobs at 2500 uM GlcN6P; higher = faster cleavage; RNA array
# Procedure, shortened: as §1
# [4] = variants of: B1; assay: self-cleavage kobs at 10000 uM GlcN6P; higher = faster cleavage; RNA array
# Procedure, shortened: as §1
Variant,self-cleavage kobs at 160 uM GlcN6P [1],self-cleavage kobs at 640 uM GlcN6P [2],self-cleavage kobs at 2500 uM GlcN6P [3],self-cleavage kobs at 10000 uM GlcN6P [4]
U30G U31G C50A A52U G62U,< 1e-05 s⁻¹,–,–,–
A39G C58U G63U,< 1e-05 s⁻¹,< 1e-05 s⁻¹,–,–
C8A G63A,< 1e-05 s⁻¹,–,< 1e-05 s⁻¹,< 1e-05 s⁻¹
C61G G62U,< 1e-05 s⁻¹,< 1e-05 s⁻¹,< 1e-05 s⁻¹,–
A15G G63A U69G,4.54e-05 ± 2e-05 s⁻¹,0.000141 ± 4.8e-05 s⁻¹,–,–
G43A U56A U57A C61U,< 1e-05 s⁻¹,–,–,–
G43C C61U,< 1e-05 s⁻¹,< 1e-05 s⁻¹,< 1e-05 s⁻¹,< 1e-05 s⁻¹
U56C G66C,–,6.26e-05 ± 2.2e-05 s⁻¹,8.66e-05 ± 2.4e-05 s⁻¹,–
U30G A33C G40C U54A A64C,–,< 1e-05 s⁻¹,< 1e-05 s⁻¹,–
G32C G38U G43A C67A,< 1e-05 s⁻¹,–,< 1e-05 s⁻¹,–
A36U U57G,< 1e-05 s⁻¹,–,< 1e-05 s⁻¹,< 1e-05 s⁻¹
G9C G40U,< 1e-05 s⁻¹,< 1e-05 s⁻¹,< 1e-05 s⁻¹,< 1e-05 s⁻¹
C50U U56C C67U,< 1e-05 s⁻¹,–,–,–
C10G G44U C50U C61U,< 1e-05 s⁻¹,< 1e-05 s⁻¹,–,–
C8U G40U G43U,< 1e-05 s⁻¹,< 1e-05 s⁻¹,< 1e-05 s⁻¹,–
G29A G35C,< 1e-05 s⁻¹,< 1e-05 s⁻¹,< 1e-05 s⁻¹,< 1e-05 s⁻¹
C10U C16A U65A,< 1e-05 s⁻¹,< 1e-05 s⁻¹,< 1e-05 s⁻¹,< 1e-05 s⁻¹
A15G G29U U55G A64G,–,0.000144 ± 2.7e-05 s⁻¹,–,–
G38C U46G A64U,< 1e-05 s⁻¹,< 1e-05 s⁻¹,–,–
G7U G9C G29C A39G U46A A52U U55C C67G C70U,–,< 1e-05 s⁻¹,< 1e-05 s⁻¹,–
G7C U46C,–,< 1e-05 s⁻¹,< 1e-05 s⁻¹,< 1e-05 s⁻¹
G38C A39G,< 1e-05 s⁻¹,< 1e-05 s⁻¹,–,–

Variant,self-cleavage kobs at 160 uM GlcN6P [1],self-cleavage kobs at 640 uM GlcN6P [2],self-cleavage kobs at 2500 uM GlcN6P [3],self-cleavage kobs at 10000 uM GlcN6P [4]
U57G G62C A64U,< 1e-05 s⁻¹,–,< 1e-05 s⁻¹,< 1e-05 s⁻¹
A39C U57G C71A,< 1e-05 s⁻¹,< 1e-05 s⁻¹,< 1e-05 s⁻¹,–
A6U U31A G35U A42U G62U,–,< 1e-05 s⁻¹,< 1e-05 s⁻¹,–
G7C C8G C10U C70G,–,0.000355 ± 0.0001 s⁻¹,–,–
A33U G44U A48C,–,< 1e-05 s⁻¹,–,–
A6G A14U A48G G63U,< 1e-05 s⁻¹,< 1e-05 s⁻¹,< 1e-05 s⁻¹,–
G29A U46A A53U U56C,< 1e-05 s⁻¹,< 1e-05 s⁻¹,–,–
C8G C71G,< 1e-05 s⁻¹,< 1e-05 s⁻¹,< 1e-05 s⁻¹,< 1e-05 s⁻¹
G38U G41C G59C,< 1e-05 s⁻¹,< 1e-05 s⁻¹,–,–
A12U A15C A42G,0.00123 ± 0.0005 s⁻¹,0.00381 ± 0.0017 s⁻¹,0.0282 ± 0.014 s⁻¹,–
A15C G32C A48C,< 1e-05 s⁻¹,–,–,–
C11U A12C G43C,< 1e-05 s⁻¹,–,< 1e-05 s⁻¹,–
G29C A36C C61A,–,< 1e-05 s⁻¹,< 1e-05 s⁻¹,–
A36U U49G A52C,< 1e-05 s⁻¹,–,–,–
G44A U49A,< 1e-05 s⁻¹,< 1e-05 s⁻¹,< 1e-05 s⁻¹,< 1e-05 s⁻¹
C50G A52U,–,< 1e-05 s⁻¹,–,< 1e-05 s⁻¹
C8G C11U A15U U57G,–,< 1e-05 s⁻¹,–,–
G13A C16G A36C G41U A52U,–,< 1e-05 s⁻¹,–,–
U49C A53C,< 1e-05 s⁻¹,< 1e-05 s⁻¹,< 1e-05 s⁻¹,–
G32C G63U,< 1e-05 s⁻¹,< 1e-05 s⁻¹,–,–
C8U G29U C34U U46G A53G,< 1e-05 s⁻¹,< 1e-05 s⁻¹,< 1e-05 s⁻¹,–
A14G C61G,< 1e-05 s⁻¹,–,–,–

Variant,self-cleavage kobs at 160 uM GlcN6P [1],self-cleavage kobs at 640 uM GlcN6P [2],self-cleavage kobs at 2500 uM GlcN6P [3],self-cleavage kobs at 10000 uM GlcN6P [4]
C11A C16U U69G,–,0.000429 ± 0.00014 s⁻¹,–,–
C8G G32U G40A G44C C58U,–,< 1e-05 s⁻¹,< 1e-05 s⁻¹,–
U46G U49G G63A A64C,< 1e-05 s⁻¹,< 1e-05 s⁻¹,< 1e-05 s⁻¹,–
U49G G60U,< 1e-05 s⁻¹,< 1e-05 s⁻¹,< 1e-05 s⁻¹,–
G9A C10U G13A A52C,< 1e-05 s⁻¹,< 1e-05 s⁻¹,< 1e-05 s⁻¹,–
C11U G32U A42U,< 1e-05 s⁻¹,–,< 1e-05 s⁻¹,–
U45G A53C C71U,0.000134 ± 5.7e-05 s⁻¹,0.000323 ± 7e-05 s⁻¹,0.000938 ± 0.00023 s⁻¹,–
U46A G51C A52G,< 1e-05 s⁻¹,< 1e-05 s⁻¹,< 1e-05 s⁻¹,–
A14C G29A U56C U57G,< 1e-05 s⁻¹,< 1e-05 s⁻¹,–,–
C8G G35A,< 1e-05 s⁻¹,–,–,< 1e-05 s⁻¹
A6C C16U G40A U57C U69A,< 1e-05 s⁻¹,–,–,–
A39G U46G A53C,5.35e-05 ± 2.3e-05 s⁻¹,0.000315 ± 0.00012 s⁻¹,–,–
G51U U56A G63U,–,< 1e-05 s⁻¹,< 1e-05 s⁻¹,–
A33C G59A,< 1e-05 s⁻¹,< 1e-05 s⁻¹,< 1e-05 s⁻¹,–
G35A G41U A48G,< 1e-05 s⁻¹,–,< 1e-05 s⁻¹,–
G7A C16G U30G G44U A52G,–,< 1e-05 s⁻¹,< 1e-05 s⁻¹,–
A36C U49C,–,< 1e-05 s⁻¹,–,< 1e-05 s⁻¹
C16A U30G U45G G60A G66U,–,< 1e-05 s⁻¹,–,–
A15C U30A C67A,0.000277 ± 6.8e-05 s⁻¹,0.000357 ± 8.3e-05 s⁻¹,0.0013 ± 0.0005 s⁻¹,–
G40A A48G C50G,< 1e-05 s⁻¹,–,< 1e-05 s⁻¹,–
U30G G63A,< 1e-05 s⁻¹,< 1e-05 s⁻¹,< 1e-05 s⁻¹,< 1e-05 s⁻¹
A12C U31G A42C U69G,0.000164 ± 3.1e-05 s⁻¹,–,0.00194 ± 0.00028 s⁻¹,–

Variant,self-cleavage kobs at 160 uM GlcN6P [1],self-cleavage kobs at 640 uM GlcN6P [2],self-cleavage kobs at 2500 uM GlcN6P [3],self-cleavage kobs at 10000 uM GlcN6P [4]
C11U A33U A53C,–,< 1e-05 s⁻¹,–,–
G7C G13A G43C G51C A52G C58A G66C C68A,–,< 1e-05 s⁻¹,–,–
C10U A12U G44A U49C C70G,< 1e-05 s⁻¹,< 1e-05 s⁻¹,< 1e-05 s⁻¹,–
G9C A12C U31C,< 1e-05 s⁻¹,< 1e-05 s⁻¹,< 1e-05 s⁻¹,–
A12U U47C U65C,< 1e-05 s⁻¹,–,–,–
G7A U30C G60U A64C,< 1e-05 s⁻¹,–,< 1e-05 s⁻¹,–
A6G A33U U57C C58A,< 1e-05 s⁻¹,< 1e-05 s⁻¹,–,–
G38C G43A,< 1e-05 s⁻¹,< 1e-05 s⁻¹,< 1e-05 s⁻¹,< 1e-05 s⁻¹
G9A G29U A36C,< 1e-05 s⁻¹,< 1e-05 s⁻¹,< 1e-05 s⁻¹,–
C34U G35C,< 1e-05 s⁻¹,–,< 1e-05 s⁻¹,< 1e-05 s⁻¹
G7U A53C,< 1e-05 s⁻¹,< 1e-05 s⁻¹,–,< 1e-05 s⁻¹
G7U U47A A52C A53U U55G C61U,< 1e-05 s⁻¹,< 1e-05 s⁻¹,< 1e-05 s⁻¹,–
C34U U45C U65A,< 1e-05 s⁻¹,< 1e-05 s⁻¹,–,–
G9U G32C A42G U45G,–,< 1e-05 s⁻¹,< 1e-05 s⁻¹,–
G7U A14C A48U,< 1e-05 s⁻¹,< 1e-05 s⁻¹,< 1e-05 s⁻¹,–
C16A A42C C71U,–,< 1e-05 s⁻¹,< 1e-05 s⁻¹,–
A6U C11U,< 1e-05 s⁻¹,–,–,–
A6U A36C G38U U56C C67G C68G,–,0.000412 ± 0.0001 s⁻¹,0.000145 ± 4.4e-05 s⁻¹,–
C8G G41U C61A,–,< 1e-05 s⁻¹,–,–
G7U C10G A33U C34U C67G C68A,6.38e-05 ± 2.3e-05 s⁻¹,3.4e-05 ± 1.7e-05 s⁻¹,–,–
A6G C50G U54C,5.66e-05 ± 2e-05 s⁻¹,5.17e-05 ± 2.4e-05 s⁻¹,–,–
A14G C16U U46C,0.000248 ± 7.7e-05 s⁻¹,–,–,–

Variant,self-cleavage kobs at 160 uM GlcN6P [1],self-cleavage kobs at 640 uM GlcN6P [2],self-cleavage kobs at 2500 uM GlcN6P [3],self-cleavage kobs at 10000 uM GlcN6P [4]
C8G A52G,< 1e-05 s⁻¹,< 1e-05 s⁻¹,< 1e-05 s⁻¹,< 1e-05 s⁻¹
G35U C50U,< 1e-05 s⁻¹,–,–,< 1e-05 s⁻¹
U31C U56G G60C,< 1e-05 s⁻¹,< 1e-05 s⁻¹,–,< 1e-05 s⁻¹
G9A C11A A14G C34G G35U A36U A48U U55C C67G U69C,–,< 1e-05 s⁻¹,–,–
U30G U55G C68U,–,0.000548 ± 0.00014 s⁻¹,7.82e-05 ± 2.1e-05 s⁻¹,–
C10A G32C G51U,< 1e-05 s⁻¹,–,–,–
U31A G35C A48G,< 1e-05 s⁻¹,< 1e-05 s⁻¹,–,–
A36U A42U,< 1e-05 s⁻¹,< 1e-05 s⁻¹,< 1e-05 s⁻¹,< 1e-05 s⁻¹
A15C G40A U45A C70G,< 1e-05 s⁻¹,< 1e-05 s⁻¹,–,–
G62C U65G,< 1e-05 s⁻¹,< 1e-05 s⁻¹,–,–
G40C U69A,< 1e-05 s⁻¹,–,< 1e-05 s⁻¹,–
C10U A33G G51A A64C,< 1e-05 s⁻¹,–,–,–
G51C G59A,< 1e-05 s⁻¹,< 1e-05 s⁻¹,< 1e-05 s⁻¹,–
U30C U54G C68A,0.000132 ± 4.9e-05 s⁻¹,–,–,–
A12G G32A C67G C68U,0.000534 ± 0.00025 s⁻¹,–,–,–
G7A C16U C71A,–,< 1e-05 s⁻¹,–,–
U45G C61A,< 1e-05 s⁻¹,< 1e-05 s⁻¹,< 1e-05 s⁻¹,< 1e-05 s⁻¹
C8U A15U U31G,< 1e-05 s⁻¹,< 1e-05 s⁻¹,–,–
G7C G32C G41U U47G U56C,< 1e-05 s⁻¹,< 1e-05 s⁻¹,< 1e-05 s⁻¹,–
A39G G62A,< 1e-05 s⁻¹,–,< 1e-05 s⁻¹,< 1e-05 s⁻¹
